Where no end group is shown, it is not given here.
B1: AM(37-52) S45R/K46W/Q50W (peptide)
peptide: DKDNVAPRRWISPWGY-NH2
notes: also called AM(37-52)NH2 [S45R, K46W, Q50W]
B2: AM(37-52) S45R/K46L/Q50W (peptide)
peptide: DKDNVAPRRLISPWGY-NH2
notes: also called AM(37-52)NH2 [S45R, K46L, Q50W]
B3: AM(37-52) S45R/K46L/S48G/Q50W (peptide)
peptide: DKDNVAPRRLIGPWGY-NH2
notes: also called AM(37-52)NH2 [S45R, K46L, S48G, Q50W]
B4: AM(37-52) S45R/K46W/S48G/Q50W (peptide)
peptide: DKDNVAPRRWIGPWGY-NH2
notes: also called AM(37-52)NH2 [S45R, K46W, S48G, Q50W]
B5: AM(37-52) S45R/K46W/I47L/S48G/Q50W (peptide)
peptide: DKDNVAPRRWLGPWGY-NH2
notes: also called AM(37-52)NH2 [S45R, K46W, I47L, S48G, Q50W]
B6: AM(37-52) D37V/S45W/K46L/Q50W/Y52F (peptide)
peptide: VKDNVAPRWLISPWGF-NH2
notes: also called AM(37-52)NH2 [D37V, S45W, K46L, Q50W, Y52F]

Molecular target: MBP-RAMP2 ECD [L106R]-(GS)5-CLR ECD-H6 fusion protein (human) (UniProt O60895)
Assay: FP competition vs FITC-AM W/W probe, purified ECD fusion

MBP-RAMP2 ECD [L106R]-(GS)5-CLR ECD-H6 fusion protein (human), sequence (O60895 other isoform, or with tags, fused parts or gaps L106R L106R): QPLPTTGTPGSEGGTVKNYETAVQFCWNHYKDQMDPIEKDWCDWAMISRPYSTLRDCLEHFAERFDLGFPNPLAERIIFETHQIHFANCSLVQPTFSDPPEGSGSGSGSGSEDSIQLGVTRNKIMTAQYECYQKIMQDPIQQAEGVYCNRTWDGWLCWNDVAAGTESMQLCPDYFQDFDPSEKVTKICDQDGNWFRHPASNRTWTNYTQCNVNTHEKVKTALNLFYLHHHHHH

| Binder | Ki [µM] | pKI |
| --- | --- | --- |
| FVPTDTGPWGY-NH2 [CGRP(27-37)NH2 [N31D, V32T, S34P, K35W, A36G, F37Y]] | 14.5 | 4.84 |
| FVPTDVGPWSY-NH2 [CGRP(27-37)NH2 [N31D, S34P, K35W, A36S, F37Y]] | 0.324 | 6.49 |

Molecular target: T1, MBP-RAMP1 ECD-(GS)5-CLR ECD-H6 fusion protein (human, UniProt O60894 24-111; Q16602 29-144)
T1 construct: range 24-111;range 29-144; Tethered ECD fusion made in E. coli; used in the FP assay at 15 nM; also called MBP-hRAMP1.24-111-(Gly-Ser)5-hCLR.29-144-H6
Assay: ratio of FP KI values at the two ECD complexes
Procedure: (§1) Fluorescence polarization peptide binding assay. […] The reactions (50 μL) were incubated for 2 hours at room temperature to reach equilibrium, and the anisotropy was measured in black half-area 96-well plates using a BMG LABTECH's POLARstar® Omega plate reader (Ortenberg, Germany). The reaction buffer was 50 mM HEPES, pH 7.5, 150 mM NaCl, 0.5 mg/ml fatty acid-free BSA, 0.5 mM EDTA, 0.5 mM maltose. KI values were calculated using nonlinear regression fitting of the competition curves to the exact analytical equations of Roehrl et al. (Biochemistry (2004) 43:16056-66) using GraphPad Prism 5.0 (GraphPad Software, San Diego Calif.).
(§2) The large size difference between the MBP-RAMP ECD-CLR ECD fusion proteins (˜65 kDa) and the probe (˜2.5 kDa) ensures a significant anisotropy difference between bound and free states of the probe. […] Kd values for the probe at each of the tethered ECD fusion proteins were determined in equilibrium saturation binding experiments (data not shown), and KI values were determined for unlabeled peptides in equilibrium competition experiments (Table 1; FIGS. 2-5). The data were analyzed according to exact analytical equations using non-linear regression curve fitting in GraphPad Prism 5.0 (GraphPad Software) via user-defined equations.

T1 sequence (O60894 other isoform, or with tags, fused parts or gaps limits assumed, form in doubt): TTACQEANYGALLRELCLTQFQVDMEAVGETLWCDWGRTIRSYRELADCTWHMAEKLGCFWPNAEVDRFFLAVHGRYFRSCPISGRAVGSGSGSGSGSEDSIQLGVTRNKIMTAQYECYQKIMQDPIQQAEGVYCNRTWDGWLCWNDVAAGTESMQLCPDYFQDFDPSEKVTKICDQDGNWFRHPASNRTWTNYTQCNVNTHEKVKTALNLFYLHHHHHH

| Binder | Receptor Selectivity (fold, over RAMP2-CLR ECD) [fold] |
| --- | --- |
| FVPTDTGPWGY-NH2 [CGRP(27-37)NH2 [N31D, V32T, S34P, K35W, A36G, F37Y]] | 821 |
| FVPTDVGPWSY-NH2 [CGRP(27-37)NH2 [N31D, S34P, K35W, A36S, F37Y]] | 245 |

Molecular target: T1, MBP-RAMP1 ECD-(GS)5-CLR ECD-H6 fusion …
Assay: FP competition vs FITC-AM W/W probe, purified ECD fusion
Procedure: as §1, §2

| Binder | Ki [nM] | pKI |
| --- | --- | --- |
| FVPTDVGPFSF-NH2 [CGRP(27-37)NH2 [N31D, S34P, K35F, A36S]] | 2.95 | 8.53 |
| FVPTDVGPWAF-NH2 [CGRP(27-37)NH2 [N31D, S34P, K35W]] | 8.13 | 8.09 |
| FVPTDTGPWGY-NH2 [CGRP(27-37)NH2 [N31D, V32T, S34P, K35W, A36G, F37Y]] | 17.6 | 7.75 |
| FVPTDVGPWSY-NH2 [CGRP(27-37)NH2 [N31D, S34P, K35W, A36S, F37Y]] | 1.32 | 8.88 |

Molecular target: MBP-RAMP2 ECD [L106R]-(GS)5-CLR ECD-H6 fusion protein (human) (UniProt O60895)
Assay: FP (anisotropy) competition: displaces FITC-Ahx-AM(37-52)NH2[S45W,Q50W] probe (7 nM) from MBP-RAMP2 ECD[L106R]-(GS)5-CLR ECD-H6 (110 nM) [I-K) panel I]

| Binder | IC50 (read off the curve) [µM] |
| --- | --- |
| B1 | 2 |
| B2 | 0.3 |

Molecular target: MBP-RAMP2 ECD [L106R]-(GS)5-CLR ECD-H6 fusion protein (human) (UniProt O60895)
Assay: FP (anisotropy) competition: displaces FITC-Ahx-AM(37-52)NH2[S45W,Q50W] probe (7 nM) from MBP-RAMP2 ECD[L106R]-(GS)5-CLR ECD-H6 (110 nM) [I-K) panel J]

| Binder | IC50 (read off the curve) [nM] |
| --- | --- |
| B3 | 90 |
| B4 | 700 |
| B5 | 1000 |

Molecular target: T1, MBP-RAMP1 ECD-(GS)5-CLR ECD-H6 fusion …
Assay: FP (anisotropy) competition: displaces FITC-Ahx-AM(37-52)NH2[S45W,Q50W] probe (7 nM) from MBP-RAMP1 ECD-(GS)5-CLR ECD-H6 (15 nM) [F-H) panel H]
Procedure: as §1

| Binder | IC50 (read off the curve) [nM] |
| --- | --- |
| B1 | ~300 |
| B2 | ~90 |

Molecular target: T1, MBP-RAMP1 ECD-(GS)5-CLR ECD-H6 fusion …
Assay: FP (anisotropy) competition: displaces FITC-Ahx-AM(37-52)NH2[S45W,Q50W] probe (7 nM) from MBP-RAMP1 ECD-(GS)5-CLR ECD-H6 (15 nM) [A-C) panel B]
Procedure: as §1
as §1, with “Single representative experiments conducted with duplicate samples are shown.” for “Fluorescence polarization peptide binding assay.”, “reactions” for “reactions (50 μL)”

| Binder | IC50 (read off the curve) [nM] |
| --- | --- |
| FVPTDVGPFSF-NH2 [CGRP(27-37)NH2 [N31D, S34P, K35F, A36S]] | ~20 |
| FVPTDVGPWAF-NH2 [CGRP(27-37)NH2 [N31D, S34P, K35W]] | ~20 |

Molecular target: T1, MBP-RAMP1 ECD-(GS)5-CLR ECD-H6 fusion …
Assay: FP (anisotropy) competition: displaces FITC-Ahx-AM(37-52)NH2[S45W,Q50W] probe (7 nM) from MBP-RAMP1 ECD-(GS)5-CLR ECD-H6 (15 nM) [A-C) panel C]
Procedure: as §1
as §1, with “Single representative experiments conducted with duplicate samples are shown.” for “Fluorescence polarization peptide binding assay.”, “reactions” for “reactions (50 μL)”

| Binder | IC50 (read off the curve) [nM] |
| --- | --- |
| FVPTDVGPWSY-NH2 [CGRP(27-37)NH2 [N31D, S34P, K35W, A36S, F37Y]] | ~20 |

Molecular target: T1, MBP-RAMP1 ECD-(GS)5-CLR ECD-H6 fusion …
Assay: FP (anisotropy) competition: displaces FITC-Ahx-AM(37-52)NH2[S45W,Q50W] probe (7 nM) from MBP-RAMP1 ECD-(GS)5-CLR ECD-H6 (15 nM) [I-J) lower graph]
Procedure: as §1

| Binder | IC50 (read off the curve) [nM] |
| --- | --- |
| B6 | ~10 |

Molecular target: T1, MBP-RAMP1 ECD-(GS)5-CLR ECD-H6 fusion …
Assay: FP (anisotropy) competition: displaces FITC-Ahx-AM(37-52)NH2[S45W,Q50W] probe (7 nM) from MBP-RAMP1 ECD-(GS)5-CLR ECD-H6 (15 nM) [I-J) upper graph]
Procedure: as §1

| Binder | IC50 (read off the curve) [nM] |
| --- | --- |
| B3 | ~20 |
| B4 | ~100 |
| B5 | ~100 |
